System: Campylobacter jejuni DSM 4688
Assay: Detection of hippuricase activity with 4-HHA, 4-aminoantipyrine and oxidizing reagent (color / absorbance at 505 nm)
Format: cell-based
Conditions: FIG. 7B; varied 0 to 4 U/mL; 10 mM 4-HHA; 0.5 mM 4-AAP, 4.5 U/mL HRP, 10 mM glucose
Procedure: Campylobacter jejuni DSM 4688 (C. j., catalase positive), Eschericha coli (E. coli, catalase positive) and Campylobacter coli DSM 4689 (C. c., catalase positive), Streptococcus agalactiae ATCC®12386 (S. a., catalase negative) and Streptococcus pyogenes ATCC®19615 (S. p., catalase negative) were cultivated on Columbia Agar with sheep blood (Thermofischer PB5039A) at 37° C. for 48 h, both Campylobacter strains were cultivated under microaerophilic atmosphere (Oxoid, Campylgen CN0025A).
Biomass of colonies were suspended in sterile phosphate buffer (100 mM, pH 7.4) and the optical density OD was determined and set to OD600 of 0.9.
Two hundred μL of cell suspensions were mixed with 25 μL of 4-hydroxyhippuric acid (4-HHA, Bachem, 4005059) stock solution, prepared in 100 mM phosphate buffer pH adjusted to 7.4 in a microtiter plate (SpektraMax M5, Molecular Devices) and incubated for 70 minutes at 37° C. […] The absorbance at 505 nm was recorded with a plate reader at room temperature. […]
Two hundred μL of cell suspensions were mixed with 25 μL of 100 mM 4-hydroxyhippuric acid (4-HHA, Bachem 4005059) prepared in 100 mM phosphate buffer pH adjusted to 7.4) in a microtiter plate and incubated for 1 h at 37° C. […] The absorbance at 505 nm was recorded with a plate reader (SpektraMax M5, Molecular Devices) at room temperature. […]

B1: GOD: glucose oxidase (GOD, Merck G2133), hydrogen peroxide-generating enzyme (protein, UniProt P13006 17-605, looked up)
Glucose oxidase: LPHYIRSNGIEASLLTDPKDVSGRTVDYIIAGGGLTGLTTAARLTENPNISVLVIESGSYESDRGPIIEDLNAYGDIFGSSVDHAYETVELATNNQTALIRSGNGLGGSTLVNGGTWTRPHKAQVDSWETVFGNEGWNWDNVAAYSLQAERARAPNAKQIAAGHYFNASCHGVNGTVHAGPRDTGDDYSPIVKALMSAVEDRGVPTKKDFGCGDPHGVSMFPNTLHEDQVRSDAAREWLLPNYQRPNLQVLTGQYVGKVLLSQNGTTPRAVGVEFGTHKGNTHNVYAKHEVLLAAGSAVSPTILEYSGIGMKSILEPLGIDTVVDLPVGLNLQDQTTATVRSRITSAGAGQGQAAWFATFNETFGDYSEKAHELLNTKLEQWAEEAVARGGFHNTTALLIQYENYRDWIVNHNVAYSELFLDTAGVASFDVWDLLPFTRGYVHILDKDPYLHHFAYDPQYFLNELDLLGQAAATQLARNISNSGAMQTYFAGETIPGDNLAYDADLSAWTEYIPYHFRPNYHGVGTCSMMPKEMGGVVDNAARVYGVQGLRVIDGSIPPTQMSSHVMTVFYAMALKISDAILEDYASMQ
In the case of B1, the “GOD enzyme activity sufficient for the reaction” value is reported as 1 U/mL.

From US20250236901A1, “METHOD OF DETECTING A MICROORGANISM HAVING HIPPURICASE ACTIVITY” (BIOSYNTH AG, priority 2022, published 2025)
